Among the data in publication PMC4411560 are Kd, kon and koff values, retold here.

Usually Kd stands for the equilibrium constant for the complex coming apart. Low values mean a tighter complex, high ones a looser complex. The term kon denotes the rate constant with which the complex forms. As usually defined, the koff is the rate constant with which the complex falls apart.

Experiment [1] addresses 30S IC_(−1/3): canonical 30S initiation complex lacking IF1 and IF3 (E. coli (strain MRE600)). Briefly: FRET or BRET. In general terms: Bioluminescence resonance energy transfer reports proximity on the nanometre scale.
The target in experiment [2] is 30S IC_(−1/3,Met): pseudo 30S initiation complex lacking IF1 and IF3 carrying Met-tRNA^fMet (E. coli (strain MRE600)). The experiment can be described thus: FRET or BRET.

As for “IF2(Cy5): Cy5-labeled E. coli initiation factor 2, γ-isoform, G810C (natural protein)”, in experiment [1], the dissociation constant (Kd) turned out to be 50 nM and the kon was found to be 1.3e+07 M⁻¹ s⁻¹. In experiment [2], the koff came to 1.3 s⁻¹ and the kon was 19000 M⁻¹ s⁻¹.
